In data set [1] the test system is HeLa Kyoto. The data set is described as follows: solubility change mitosis vs G1/S (difference of NP-40 vs SDS log2 ratios) (log2 ratio difference); higher = more soluble in mitosis.
The test system of data set [2] is HeLa Kyoto. The data set is described as follows: solubility in G1/S (NP-40 vs SDS abundance) (log2 ratio); higher = more soluble. The note with it: cell cycle stage: G1/S.
Data set [3] relates to HeLa Kyoto. Put plainly: melting temperature (median over replicates), in situ; higher = more thermally stable.
The test system of data set [4] is HeLa Kyoto. Put plainly: thermal stability score vs G1/S (z-score of summed log2 fold changes over temperatures); higher = more thermally stable than in G1/S.
The mark [5] stands for this setting: cell cycle stage: early G1 (4.5 h after nocodazole release).
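Wherever melting temperature (median over replicates), in situ is given: HeLa Kyoto cells synchronized by double thymidine or nocodazole block, proteins quantified by TMT10plex mass spectrometry, three independent biological replicates.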
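Wherever solubility change mitosis vs G1/S (difference of NP-40 vs SDS log2 ratios) is given: synchronized HeLa Kyoto cells (double thymidine block for G1/S, nocodazole release for mitosis), protein amounts in NP-40 versus SDS lysates quantified by mass spectrometry, three biological replicates.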
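Wherever solubility in G1/S (NP-40 vs SDS abundance) is given: HeLa Kyoto cells arrested at G1/S by double thymidine block, proteins quantified by TMT10plex mass spectrometry in mild NP-40 versus SDS extracts, three biological replicates.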
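Wherever thermal stability score vs G1/S (z-score of summed log2 fold changes over temperatures) is given: synchronized HeLa Kyoto cells, proteins quantified by TMT10plex mass spectrometry, three biological replicates, mitosis taken 0.5 h after nocodazole release, G1/S directly after double thymidine block.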

In the case of “MAWALKLPLADEVIESGLVQDFDASLSGIGQELGAGAYSMSDVLALPIFKQEESSLPPDNENKILPFQYVLCAATSPAVKLHDETLTYLNQGQSYEIRMLDNRKLGELPEINGKLVKSIFRVVFHDRRLQYTEHQQLEGWRWNRPGDRILDIDIPMSVGIIDPRANPTQLNTVEFLWDPAKRTSVFIQVHCISTEFTMRKHGGEKGVPFRVQIDTFKENENGEYTEHLHSASCQIKVFKPKGADRKQKTDREKMEKRTPHEKEKYQPSYETTILTECSPWPEITYVNNSPSPGFNSSHSSFSLGEGNGSPNHQPEPPPPVTDNLLPTTTPQEAQQWLHRNRFSTFTRLFTNFSGADLLKLTRDDVIQICGPADGIRLFNALKGRMVRPRLTIYVCQESLQLREQQQQQQQQQQKHEDGDSNGTFFVYHAIYLEELTAVELTEKIAQLFSISPCQISQIYKQGPTGIHVLISDEMIQNFQEEACFILDTMKAETNDSYHIILK [TFCP2]”, the “solubility change mitosis (log2)” value in the data set on HeLa Kyoto [1] is -0.0306. Besides, the “solubility in G1/S (log2)” value in the data set on HeLa Kyoto [2] was -0.0776. Besides, the melting temperature in the data set with HeLa Kyoto [3] (cell cycle stage: G1/S) turned out to be 48.2 °C; in the data set on HeLa Kyoto [3] (cell cycle stage: mitosis), 48.6 °C. The results for the thermal stability score in the data set on HeLa Kyoto [4] (setting [5]) and in the data set with HeLa Kyoto [4] (cell cycle stage: mitosis) were 0.94 and 2.72, respectively.

Take “MAWTKYQLFLAGLMLVTGSINTLSAKWADNFMAEGCGGSKEHSFQHPFLQAVGMFLGEFSCLAAFYLLRCRAAGQSDSSVDPQQPFNPLLFLPPALCDMTGTSLMYVALNMTSASSFQMLRGAVIIFTGLFSVAFLGRRLVLSQWLGILATIAGLVVVGLADLLSKHDSQHKLSEVITGDLLIIMAQIIVAIQMVLEEKFVYKHNVHPLRAVGTEGLFGFVILSLLLVPMYYIPAGSFSGNPRGTLEDALDAFCQVGQQPLIAVALLGNISSIAFFNFAGISVTKELSATTRMVLDSLRTVVIWALSLALGWEAFHALQILGFLILLIGTALYNGLHRPLLGRLSRGRPLAEESEQERLLGGTRTPINDAS [SLC35F6]”: the “solubility change mitosis (log2)” value in the data set on HeLa Kyoto [1] is -0.0109. Further, in the data set on HeLa Kyoto [2], the “solubility in G1/S (log2)” value is -0.144. Further, the melting temperature with HeLa Kyoto [3] (cell cycle stage: G1/S) turned out to be 60.1 °C; in the data set with HeLa Kyoto [3] (cell cycle stage: mitosis), 56 °C. Moreover, the thermal stability score in the data set on HeLa Kyoto [4] (setting [5]) is -2.27; in the data set with HeLa Kyoto [4] (cell cycle stage: mitosis), -5.04.

Take “MAWVLKMDEVIESGLVHDFDASLSGIGQELGAGAYSMSDVLALPIFKQEDSSLPLDGETEHPPFQYVMCAATSPAVKLHDETLTYLNQGQSYEIRMLDNRKMGDMPEINGKLVKSIIRVVFHDRRLQYTEHQQLEGWKWNRPGDRLLDLDIPMSVGIIDTRTNPSQLNAVEFLWDPAKRTSAFIQVHCISTEFTPRKHGGEKGVPFRIQVDTFKQNENGEYTDHLHSASCQIKVFKPKGADRKQKTDREKMEKRTAHEKEKYQPSYDTTILTEMRLEPIIEDAVEHEQKKSSKRTLPADYGDSLAKRGSCSPWPDAPTAYVNNSPSPAPTFTSPQQSTCSVPDSNSSSPNHQGDGASQTSGEQIQPSATIQETQQWLLKNRFSSYTRLFSNFSGADLLKLTKEDLVQICGAADGIRLYNSLKSRSVRPRLTIYVCREQPSSTVLQGQQQAASSASENGSGAPYVYHAIYLEEMIASEVARKLALVFNIPLHQINQVYRQGPTGIHILVSDQMVQNFQDESCFLFSTVKAESSDGIHIILK [UBP1]”: the “solubility change mitosis (log2)” value in the data set on HeLa Kyoto [1] was found to be 0.0235. For the same sequence, the “solubility in G1/S (log2)” value in the data set on HeLa Kyoto [2] is 0.06. Moreover, the melting temperature with HeLa Kyoto [3] (cell cycle stage: G1/S) was determined as 50.5 °C; with HeLa Kyoto [3] (cell cycle stage: mitosis), 48.3 °C. Also, the thermal stability score with HeLa Kyoto [4] (setting [5]) is -0.25; with HeLa Kyoto [4] (cell cycle stage: mitosis), -0.0933.

For the sequence “MAYAYLFKYIIIGDTGVGKSCLLLQFTDKRFQPVHDLTIGVEFGARMITIDGKQIKLQIWDTAGQESFRSITRSYYRGAAGALLVYDITRRDTFNHLTTWLEDARQHSNSNMVIMLIGNKSDLESRREVKKEEGEAFAREHGLIFMETSAKTASNVEEAFINTAKEIYEKIQEGVFDINNEANGIKIGPQHAATNATHAGNQGGQQAGGGCC [RAB2A]”, in the data set on HeLa Kyoto [1], the “solubility change mitosis (log2)” value is -0.118. Moreover, in the data set on HeLa Kyoto [2], the “solubility in G1/S (log2)” value is -0.194. The melting temperature amounted to 59.9 °C in the data set on HeLa Kyoto [3] (cell cycle stage: G1/S) and 61 °C in the data set with HeLa Kyoto [3] (cell cycle stage: mitosis). In addition, the thermal stability score was -2.08 in the data set with HeLa Kyoto [4] (setting [5]) and -3.49 in the data set with HeLa Kyoto [4] (cell cycle stage: mitosis).

As for “MAYNDTDRNQTEKLLKRVRELEQEVQRLKKEQAKNKEDSNIRENSAGAGKTKRAFDFSAHGRRHVALRIAYMGWGYQGFASQENTNNTIEEKLFEALTKTRLVESRQTSNYHRCGRTDKGVSAFGQVISLDLRSQFPRGRDSEDFNVKEEANAAAEEIRYTHILNRVLPPDIRILAWAPVEPSFSARFSCLERTYRYFFPRADLDIVTMDYAAQKYVGTHDFRNLCKMDVANGVINFQRTILSAQVQLVGQSPGEGRWQEPFQLCQFEVTGQAFLYHQVRCMMAILFLIGQGMEKPEIIDELLNIEKNPQKPQYSMAVEFPLVLYDCKFENVKWIYDQEAQEFNITHLQQLWANHAVKTHMLYSMLQGLDTVPVPCGIGPKMDGMTEWGNVKPSVIKQTSAFVEGVKMRTYKPLMDRPKCQGLESRIQHFVRRGRIEHPHLFHEEETKAKRDCNDTLEEENTNLETPTKRVCVDTEIKSII [PUS3]”, in the data set with HeLa Kyoto [1], the “solubility change mitosis (log2)” value is -0.169. Further, the “solubility in G1/S (log2)” value with HeLa Kyoto [2] turned out to be 0.0227. Besides, the melting temperature in the data set on HeLa Kyoto [3] (cell cycle stage: G1/S) turned out to be 51.6 °C; in the data set on HeLa Kyoto [3] (cell cycle stage: mitosis), 52.7 °C. In addition, the thermal stability score in the data set on HeLa Kyoto [4] (setting [5]) is 0.0981; with HeLa Kyoto [4] (cell cycle stage: mitosis), -0.181.

Turning to “MAYQSLRLEYLQIPPVSRAYTTACVLTTAAVQLELITPFQLYFNPELIFKHFQIWRLITNFLFFGPVGFNFLFNMIFLYRYCRMLEEGSFRGRTADFVFMFLFGGFLMTLFGLFVSLVFLGQAFTIMLVYVWSRRNPYVRMNFFGLLNFQAPFLPWVLMGFSLLLGNSIIVDLLGIAVGHIYFFLEDVFPNQPGGIRILKTPSILKAIFDTPDEDPNYNPLPEERPGGFAWGEGQRLGG [DERL2]”, the “solubility change mitosis (log2)” value in the data set with HeLa Kyoto [1] is -0.0878. For the same sequence, in the data set with HeLa Kyoto [2], the “solubility in G1/S (log2)” value was -0.0605. The melting temperature in the data set with HeLa Kyoto [3] (cell cycle stage: G1/S) turned out to be 54.4 °C. The thermal stability score is -0.206 in the data set with HeLa Kyoto [4] (setting [5]) and -1.33 in the data set with HeLa Kyoto [4] (cell cycle stage: mitosis).
